Results from PMC2756588.

T1: Hse1, P38753
T1 sequence (P38753 208-285, looked up): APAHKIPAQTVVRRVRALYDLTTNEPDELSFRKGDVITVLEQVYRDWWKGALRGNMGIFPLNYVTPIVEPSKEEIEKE

T2: Lsb1, P53281
T2 sequence (P53281 45-122, looked up): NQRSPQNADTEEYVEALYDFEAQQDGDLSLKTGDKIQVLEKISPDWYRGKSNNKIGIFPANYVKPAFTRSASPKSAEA

T3: Fus1, P11710
T3 sequence (P11710 432-512, looked up): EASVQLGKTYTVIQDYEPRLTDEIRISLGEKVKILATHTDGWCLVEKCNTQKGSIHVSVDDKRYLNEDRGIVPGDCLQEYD

T4: Cdc25, P04821
T4 sequence (P04821 50-136, looked up): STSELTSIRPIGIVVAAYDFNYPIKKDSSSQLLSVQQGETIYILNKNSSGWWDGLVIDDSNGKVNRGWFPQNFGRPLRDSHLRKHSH

T5: Bzz1-2, P38822
T5 sequence (P38822 568-633, looked up): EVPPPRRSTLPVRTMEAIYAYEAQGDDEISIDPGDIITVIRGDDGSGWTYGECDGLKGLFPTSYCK

T6: Abp1, P15891
T6 sequence (P15891 535-592, looked up): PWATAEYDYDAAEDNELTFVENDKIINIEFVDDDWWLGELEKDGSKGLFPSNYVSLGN

T7: Lsb3, P43603
T7 sequence (P43603 385-451, looked up): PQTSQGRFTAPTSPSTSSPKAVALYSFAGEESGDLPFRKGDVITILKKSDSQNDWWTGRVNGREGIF

T8: Hof1, Q05080
T8 sequence (Q05080 590-669, looked up): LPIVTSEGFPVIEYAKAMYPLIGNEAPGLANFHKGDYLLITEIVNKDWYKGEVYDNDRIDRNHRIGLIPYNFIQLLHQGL

T9: Bbc1, P47068
T9 sequence (P47068 1-78, looked up): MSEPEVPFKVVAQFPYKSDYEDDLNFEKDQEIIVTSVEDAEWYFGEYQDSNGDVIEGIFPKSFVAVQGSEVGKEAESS

T10: Boi1, P38041
T10 sequence (P38041 1-86, looked up): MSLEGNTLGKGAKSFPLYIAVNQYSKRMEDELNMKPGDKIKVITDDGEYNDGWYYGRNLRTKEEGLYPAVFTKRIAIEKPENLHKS

T11: Pin3, Q06449
T11 sequence (Q06449 53-122, looked up): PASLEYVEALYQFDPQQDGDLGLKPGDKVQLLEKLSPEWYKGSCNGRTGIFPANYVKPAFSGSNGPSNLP

T12: Sla1-3, P32790
T12 sequence (P32790 344-424, looked up): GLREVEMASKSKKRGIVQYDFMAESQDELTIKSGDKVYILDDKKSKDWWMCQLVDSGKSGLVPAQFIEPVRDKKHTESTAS

T13: Lsb4, P32793
T13 sequence (P32793 402-468, looked up): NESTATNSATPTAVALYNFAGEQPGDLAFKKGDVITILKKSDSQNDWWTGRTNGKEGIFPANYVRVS

T14: Nbp2, Q12163
T14 sequence (Q12163 103-180, looked up): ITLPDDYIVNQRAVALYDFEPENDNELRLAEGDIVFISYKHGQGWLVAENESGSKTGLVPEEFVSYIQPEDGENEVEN

T15: Boi2, P39969
T15 sequence (P39969 32-116, looked up): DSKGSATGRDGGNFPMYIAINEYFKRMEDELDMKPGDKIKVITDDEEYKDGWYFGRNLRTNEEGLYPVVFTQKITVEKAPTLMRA

T16: Sla1-2, P32790
T16 sequence (P32790 60-140, looked up): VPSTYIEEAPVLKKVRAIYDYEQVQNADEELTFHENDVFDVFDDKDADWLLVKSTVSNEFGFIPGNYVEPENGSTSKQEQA

T17: Bud14, P27637
T17 sequence (P27637 247-328, looked up): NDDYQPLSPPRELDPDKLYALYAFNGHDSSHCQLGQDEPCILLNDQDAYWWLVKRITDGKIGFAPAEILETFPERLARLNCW

T18: Bzz1-1, P38822
T18 sequence (P38822 478-572, looked up): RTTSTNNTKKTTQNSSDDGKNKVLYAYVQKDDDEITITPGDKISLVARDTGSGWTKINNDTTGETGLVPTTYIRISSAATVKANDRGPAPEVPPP

T19: Pex13, P80667
T19 sequence (P80667 295-386, looked up): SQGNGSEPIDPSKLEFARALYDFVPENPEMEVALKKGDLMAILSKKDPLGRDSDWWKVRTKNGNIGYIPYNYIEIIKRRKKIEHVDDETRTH

T20: Cyk3, Q07533
T20 sequence (Q07533 1-83, looked up): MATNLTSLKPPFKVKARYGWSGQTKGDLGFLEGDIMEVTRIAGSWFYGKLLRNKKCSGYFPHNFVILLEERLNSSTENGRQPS

T21: Myo5, Q04439
T21 sequence (Q04439 1072-1160, looked up): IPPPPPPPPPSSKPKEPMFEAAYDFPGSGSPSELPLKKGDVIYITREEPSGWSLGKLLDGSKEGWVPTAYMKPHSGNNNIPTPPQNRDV


Target: T1, Hse1, P38753
Experiment: SPOT array
Settings: median of control spots 1727

Row | Binder | SPOT intensity
1 | GDHPKGPPPPPPPPD | 0
2 | TPEIPPPLPPKIMVH | 1540
3 | RHLKLVPSTPMDIPW | 134

Target: Sho1, P40073
Experiment: SPOT array
Settings: median of control spots 1148

Sequence of Sho1, P40073 (P40073 287-367): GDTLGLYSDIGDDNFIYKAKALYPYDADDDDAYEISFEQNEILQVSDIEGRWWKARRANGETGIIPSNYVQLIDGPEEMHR

Row | Binder | SPOT intensity
4 | GDHPKGPPPPPPPPD | 0
5 | TPEIPPPLPPKIMVH | 52
6 | RHLKLVPSTPMDIPW | 72

Target: T2, Lsb1, P53281
Experiment: SPOT array
Settings: median of control spots 388

Row | Binder | SPOT intensity
7 | GDHPKGPPPPPPPPD | 0
8 | TPEIPPPLPPKIMVH | 0
9 | RHLKLVPSTPMDIPW | 14

Target: Myo3, P36006
Experiment: SPOT array
Settings: median of control spots 468

Row | Binder | SPOT intensity
10 | GDHPKGPPPPPPPPD | 456
11 | TPEIPPPLPPKIMVH | 304
12 | RHLKLVPSTPMDIPW | 81

Target: GST
Experiment: SPOT array
Settings: median of control spots 978

Row | Binder | SPOT intensity
13 | GDHPKGPPPPPPPPD | 0
14 | TPEIPPPLPPKIMVH | 0
15 | RHLKLVPSTPMDIPW | 0

Target: T3, Fus1, P11710
Experiment: SPOT array
Settings: median of control spots 1200

Row | Binder | SPOT intensity
16 | GDHPKGPPPPPPPPD | 0
17 | TPEIPPPLPPKIMVH | 0
18 | RHLKLVPSTPMDIPW | 1430

Target: T4, Cdc25, P04821
Experiment: SPOT array
Settings: median of control spots 969

Row | Binder | SPOT intensity
19 | GDHPKGPPPPPPPPD | 0
20 | TPEIPPPLPPKIMVH | 2
21 | RHLKLVPSTPMDIPW | 14

Target: T5, Bzz1-2, P38822
Experiment: SPOT array
Settings: median of control spots 4538

Row | Binder | SPOT intensity
22 | GDHPKGPPPPPPPPD | 0
23 | TPEIPPPLPPKIMVH | 0
24 | RHLKLVPSTPMDIPW | 411

Target: T6, Abp1, P15891
Experiment: SPOT array
Settings: median of control spots 935

Row | Binder | SPOT intensity
25 | GDHPKGPPPPPPPPD | 0
26 | TPEIPPPLPPKIMVH | 2
27 | RHLKLVPSTPMDIPW | 37

Target: T7, Lsb3, P43603
Experiment: SPOT array
Settings: median of control spots 406

Row | Binder | SPOT intensity
28 | GDHPKGPPPPPPPPD | 0
29 | TPEIPPPLPPKIMVH | 96
30 | RHLKLVPSTPMDIPW | 0

Target: T8, Hof1, Q05080
Experiment: SPOT array
Settings: median of control spots 4086

Row | Binder | SPOT intensity
31 | GDHPKGPPPPPPPPD | 0
32 | TPEIPPPLPPKIMVH | 2240
33 | RHLKLVPSTPMDIPW | 59

Target: T9, Bbc1, P47068
Experiment: SPOT array
Settings: median of control spots 796

Row | Binder | SPOT intensity
34 | GDHPKGPPPPPPPPD | 0
35 | TPEIPPPLPPKIMVH | 0
36 | RHLKLVPSTPMDIPW | 1

Target: T10, Boi1, P38041
Experiment: SPOT array
Settings: median of control spots 1162

Row | Binder | SPOT intensity
37 | GDHPKGPPPPPPPPD | 0
38 | TPEIPPPLPPKIMVH | 0
39 | RHLKLVPSTPMDIPW | 0

Target: T11, Pin3, Q06449
Experiment: SPOT array
Settings: median of control spots 2171

Row | Binder | SPOT intensity
40 | GDHPKGPPPPPPPPD | 0
41 | TPEIPPPLPPKIMVH | 20
42 | RHLKLVPSTPMDIPW | 329

Target: Rvs167, P39743
Experiment: SPOT array
Settings: median of control spots 2707

Sequence of Rvs167, P39743 (P39743 419-482): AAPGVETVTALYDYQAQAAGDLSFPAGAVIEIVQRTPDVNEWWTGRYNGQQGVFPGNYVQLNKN

Row | Binder | SPOT intensity
43 | GDHPKGPPPPPPPPD | 0
44 | TPEIPPPLPPKIMVH | 0
45 | RHLKLVPSTPMDIPW | 43

Target: T12, Sla1-3, P32790
Experiment: SPOT array
Settings: median of control spots 5475

Row | Binder | SPOT intensity
46 | GDHPKGPPPPPPPPD | 0
47 | TPEIPPPLPPKIMVH | 0
48 | RHLKLVPSTPMDIPW | 290

Target: T13, Lsb4, P32793
Experiment: SPOT array
Settings: median of control spots 397

Row | Binder | SPOT intensity
49 | GDHPKGPPPPPPPPD | 0
50 | TPEIPPPLPPKIMVH | 42
51 | RHLKLVPSTPMDIPW | 6

Target: T14, Nbp2, Q12163
Experiment: SPOT array
Settings: median of control spots 357

Row | Binder | SPOT intensity
52 | GDHPKGPPPPPPPPD | 1
53 | TPEIPPPLPPKIMVH | 0
54 | RHLKLVPSTPMDIPW | 3

Target: T15, Boi2, P39969
Experiment: SPOT array
Settings: median of control spots 1161

Row | Binder | SPOT intensity
55 | GDHPKGPPPPPPPPD | 0
56 | TPEIPPPLPPKIMVH | 0
57 | RHLKLVPSTPMDIPW | 0

Target: T16, Sla1-2, P32790
Experiment: SPOT array
Settings: median of control spots 712

Row | Binder | SPOT intensity
58 | GDHPKGPPPPPPPPD | 0
59 | TPEIPPPLPPKIMVH | 0
60 | RHLKLVPSTPMDIPW | 3

Target: T17, Bud14, P27637
Experiment: SPOT array
Settings: median of control spots 956

Row | Binder | SPOT intensity
61 | GDHPKGPPPPPPPPD | 1
62 | TPEIPPPLPPKIMVH | 0
63 | RHLKLVPSTPMDIPW | 8

Target: T18, Bzz1-1, P38822
Experiment: SPOT array
Settings: median of control spots 4446

Row | Binder | SPOT intensity
64 | GDHPKGPPPPPPPPD | 331
65 | TPEIPPPLPPKIMVH | 0
66 | RHLKLVPSTPMDIPW | 6

Target: T19, Pex13, P80667
Experiment: SPOT array
Settings: median of control spots 1341

Row | Binder | SPOT intensity
67 | GDHPKGPPPPPPPPD | 0
68 | TPEIPPPLPPKIMVH | 321
69 | RHLKLVPSTPMDIPW | 99

Target: Bem1-1, P29366
Experiment: SPOT array
Settings: median of control spots 4282

Sequence of Bem1-1, P29366 (P29366 55-141): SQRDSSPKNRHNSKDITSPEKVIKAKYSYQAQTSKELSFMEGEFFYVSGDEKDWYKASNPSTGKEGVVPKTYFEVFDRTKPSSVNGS

Row | Binder | SPOT intensity
70 | GDHPKGPPPPPPPPD | 0
71 | TPEIPPPLPPKIMVH | 0
72 | RHLKLVPSTPMDIPW | 189

Target: T20, Cyk3, Q07533
Experiment: SPOT array
Settings: median of control spots 1451

Row | Binder | SPOT intensity
73 | GDHPKGPPPPPPPPD | 0
74 | TPEIPPPLPPKIMVH | 0
75 | RHLKLVPSTPMDIPW | 0

Target: Bem1-2, P29366
Experiment: SPOT array
Settings: median of control spots 4347

Sequence of Bem1-2, P29366 (P29366 139-227): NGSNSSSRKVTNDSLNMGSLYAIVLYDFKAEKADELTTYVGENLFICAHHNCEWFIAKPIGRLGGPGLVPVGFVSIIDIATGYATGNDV

Row | Binder | SPOT intensity
76 | GDHPKGPPPPPPPPD | 0
77 | TPEIPPPLPPKIMVH | 0
78 | RHLKLVPSTPMDIPW | 90

Target: T21, Myo5, Q04439
Experiment: SPOT array
Settings: median of control spots 471

Row | Binder | SPOT intensity
79 | GDHPKGPPPPPPPPD | 262
80 | TPEIPPPLPPKIMVH | 87
81 | RHLKLVPSTPMDIPW | 10
